{"source": "patent US20260275319A1", "about": "“ARCHAEAL PEPTIDE RECOMBINASE – A NOVEL PEPTIDE LIGATING ENZYME” (MAX-PLANCK-GESELLSCHAFT ZUR FÖRDERUNG DER WISSENSCHAFTEN …, priority 2019, published 2026)", "key": {"[1]": {"system": "LPETG (primary) and GGG (secondary) substrates", "settings": "cited from earlier work"}, "[2]": {"system": "Ub-GGSLPETGGGHHHHHH and GGG-Ub", "experiment": "Comparison with Sortase: SrtA / SrtA5* catalyzed protein-protein ligation", "settings": "3.13 μM each substrate, enzyme:substrate ratio 1:1, 37° C.", "description": "(§1) (SEQ ID NO: 536) and GGG-Ub (SEQ ID NO: 666) were recorded. The Adriase assays were conducted with 3.13 μM and 100 μM substrate concentration and 0.0025 molar equivalents Adriase (SEQ ID NO: 380) in reaction buffer (50 mM acetic acid, 50 mM MES, 50 mM HEPES, 100 mM NaCl, 50 mM KCl, 5 mM TCEP, pH 7.0) at 50° C. The SrtA5* and SrtA assays were conducted with 3.13 μM and 100 μM substrate concentration and either 1 or 0.1 molar equivalents SrtA5* or SrtA (SEQ ID NO: 535 and 662) in Sortase buffer (50 mM Tris-HCl pH 7.5, 150 mM NaCl, 10 mM CaCl2) at 37° C. At various time points (0 s, 28 s, 55 s, 88 s, 126 s, 171 s, 225 s, 295 s, 393 s, 554 s, 1125 s, 1670 s and 2250 s), an aliquot of the reaction was mixed with 2% SDS. Samples were then separated on 12% polyacrylamide gels (Thermo) and stained with Coomassie blue. The band intensities of educt and product bands were quantified using ImageJ v1.52a, assuming that all ubiquitin molecules bind the coomassie dye in a similar manner. The results were used to plot the time courses for each experiment."}, "[3]": {"system": "(15)KDPGA(10) and PGA(10F) substrates", "settings": "FIG. 14", "description": "Specifically, 15 μM of (15)KDPGA(10)(SEQ ID NO: 419) and 15 μM of fluorophore-coupled PGA(10F)(SEQ ID NO: 374) substrates were incubated optimized M. jannaschii Adriase buffer (20 mM MES-NaOH pH 5.8, 150 mM NaCl, 100 mM KCl, 5 mM TCEP-HCl) for 8 min at 80° C. with either various Adriase concentrations. The assay was performed with either 7 nM, 21 nM, 62 nM, 185 nM, 556 nM, 1666 nM, 5000 nM or 15000 nM N-terminally modified Adriase (N-His, SEQ ID NO: 450) or 0 nM, 7 nM, 21 nM or 62 nM unmodified Adriase (SEQ ID NO: 385) and stopped by addition of 2% SDS. Samples were then separated on 12% polyacrylamide gels (Thermo) and fluorescent products visualized by UV light."}, "[4]": {"molecular_target": "M. jannaschii MtrA^Δ194-245 (Methanocaldococcus jannaschii, UniProt Q58261)", "sequence (Q58261 1-189, stated change not applied)": "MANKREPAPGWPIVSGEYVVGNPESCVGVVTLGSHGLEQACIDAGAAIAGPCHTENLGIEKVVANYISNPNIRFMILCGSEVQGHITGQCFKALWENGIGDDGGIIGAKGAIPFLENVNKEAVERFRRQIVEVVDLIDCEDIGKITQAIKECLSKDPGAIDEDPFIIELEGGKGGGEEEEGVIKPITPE", "settings": "1:1 molar mixture, 200 μM, Superdex S200, light scattering", "description": "Data analysis was carried out with ASTRA v7.3.0.18 software (Wyatt).\nFor this purpose, size exclusion chromatography using 50 μl 200 μM M. jannaschii Adriase^ΔOB (SEQ ID NO: 132), M. jannaschii MtrA^Δ194-245 (SEQ ID NO:420) or a 1:1 molar mixture of the Adriase-MtrA pair was analyzed using a Superdex S200 10/300 GL gel size-exclusion column (20 mM HEPES-NaOH pH 7.5, 50 mM NaCl, 100 mM KCl) coupled to a miniDAWN Tristar Laser photometer (Wyatt).\nTo investigate, whether the OB fold alone is sufficient to bind Adriase in the above experimental set-up, we repeated the same analysis using M. jannaschii Adriase^ΔNTN (SEQ ID NO: 519). Specifically, size exclusion chromatography using 50 μl 200 μM M. jannaschii Adriase^ΔNTN (SEQ ID NO: 519), M. jannaschii MtrA^Δ194-245 (SEQ ID NO:420) or a 1:1 molar mixture of the Adriase-MtrA pair was analyzed using a Superdex S200 10/300 GL gel size-exclusion column (20 mM HEPES-NaOH pH 7.5, 50 mM NaCl, 100 mM KCl) coupled to a miniDAWN Tristar Laser photometer (Wyatt)."}, "[5]": {"system": "(15)KDPGA(10) and PGA(10F) substrates", "settings": "100 nM enzyme, 15 μM substrates, 8 min, 85° C. (M. jannaschii variants) or 50° C. (M. mazei)", "description": "In a second set of experiments, the ligase activity of Adriase variants was tested with (15)KDPGA(10)(SEQ ID NO: 419) and PGA(10F)(SEQ ID NO:414) substrates. […] Furthermore, M. mazei Adriase (SEQ ID NO: 380) was tested for ligase activity with the same M. jannaschii peptide substrates to assess whether variety within the recognition motif is tolerated. The read out for Adriase activity was the detection of fluorescently labeled ligation product (10)KDPGA(10F)(SEQ ID NO: 418).\nThe reaction was performed in optimized M. jannaschii Adriase buffer (20 mM MES-NaOH pH 5.8, 150 mM NaCl, 100 mM KCl, 5 mM TCEP-HCl) for 8 min at 85° C. when M. jannaschii derived Adriase variants were used and at 50° C. in optimized M. mazei Adriase buffer (50 mM acetic acid, 50 mM MES, 50 mM HEPES, 100 mM NaCl, 50 mM KCl, 5 mM TCEP, pH 7.0) when M. mazei Adriase was used and stopped by addition of 2% SDS. Samples were then separated on 12% polyacrylamide gels (Thermo) and fluorescent products visualized by UV light."}, "[6]": {"system": "(5)KDPGA(10F) and PGA(10) substrates", "experiment": "M. mazei Adriase peptide-peptide ligation time courses and Michaelis-Menten plot", "assay_type": "biochemical", "settings": "50° C.", "text": "The band intensity of the respective fluorescently labeled PGA(10F) peptides (SEQ ID NO: 455), which were released by the ligation reactions were quantified using ImageJ v1.50i and subtracted from background signal in control reactions without PGA(10) peptides."}, "[7]": {"system": "Ub-(5)KDPGA(10) and PGA(10)-sdAb/CyP/GST", "experiment": "Ligation of unrelated protein substrates (sdAb, CyP, GST)", "assay_type": "biochemical, M. mazei", "settings": "0.9 μM enzyme, 3.7 μM substrates, 37° C., 10 min"}, "[8]": {"system": "Ub-(5)KDPGA(15) and PGA(15)-Ub substrates", "experiment": "M. mazei Adriase protein-protein ligation kinetics", "description": "Specifically, different concentrations (0.39 μM, 0.78 μM, 1.56 μM, 3.13 μM, 6.25 μM, 12.5, 25, 50 or 100 μM; three independent experiments per concentration) of Ub-(5)KDPGA(15)(SEQ ID NO: 520) and PGA(15)-Ub (SEQ ID NO: 521) substrates were incubated with 0.0025 molar equivalents of M. mazei Adriase (SEQ ID NO: 380) in reaction buffer (50 mM acetic acid, 50 mM MES, 50 mM HEPES, 100 mM NaCl, 50 mM KCl, 5 mM TCEP, pH 7.0) at 50° C. At various time points (0 s, 28 s, 55 s, 88 s, 126 s, 171 s, 225 s, 295 s, 393 s, 554 s, 1125 s, 1670 s and 2250 s), an aliquot of the reaction was mixed with 2% SDS. Samples were then separated on 12% polyacrylamide gels (Thermo) and stained with Coomassie blue (FIG. 21A). The band intensities of educt and product bands were quantified using ImageJ v1.52a, assuming that all ubiquitin molecules bind the coomassie dye in a similar manner. The results were used to plot the time courses for each experiment (FIG. 21B).\nthe data fit for each time course allowed the determination of the maximum rate parameter for each concentration. These maximum rates were then used in a Michaelis-Menten plot (FIG. 21C) to approximate kinetic measures."}, "[9]": {"system": "Ub-(5)KDPGA(15)-Strep and PGA(10)", "experiment": "Test for hydrolase activity with protein substrate", "description": "To investigate, whether this characteristic also holds true with protein substrates, the above experiment was repeated with Ub-(5)KDPGA(15)-Strep substrate (SEQ ID NO: 522). Specifically, 25 μM Ub-(5)KDPGA(15)-Strep and 25 μM PGA(10)(SEQ ID NO: 454) were incubated with either 25 nM or 25 μM M. mazei Adriase (SEQ ID NO: 380) in optimized buffer (50 mM acetic acid, 50 mM MES, 50 mM HEPES, 100 mM NaCl, 50 mM KCl, 5 mM TCEP, pH 7.0) at 50° C. After 140 s, 320 s, 575 s, 1002 s, 30 min or 90 min, aliquots were removed and mixed with 2% SDS to stop the reaction."}, "[10]": {"system": "Ub-(5)KDPGA(15) and PGA(15)-Ub", "experiment": "Comparison with Sortase: Adriase-catalyzed protein-protein ligation", "description": "as §1"}, "[11]": {"molecular_target": "LPETG (primary) and GGG (secondary) substrates (Staphylococcus aureus, UniProt Q2FV99)", "sequence (Q2FV99 60-206)": "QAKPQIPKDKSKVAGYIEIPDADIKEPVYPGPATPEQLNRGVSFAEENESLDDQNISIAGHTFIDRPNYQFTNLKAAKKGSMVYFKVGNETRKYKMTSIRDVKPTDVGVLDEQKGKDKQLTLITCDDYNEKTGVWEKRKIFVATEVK", "settings": "Frankel (2005); cited from earlier work"}}, "note": "Several values for one entry are separate records, joined by “and”; a condition that tells them apart may be missing. Equal values may be shown once. Read-outs that look alike come from different tables or passages of the source.", "data": [{"molecule": "SrtA5* (protein, listed as Staphylococcus aureus, C-terminal His-tag; SrtA5* delta 1-59 with C-terminal His-tag) MQAKPQIPKDKSKVAGYIEIPDADIKEPVYPGPATREQLNRGVSFAEENESLDDQNISIAGHTFIDRPNYQFTNLKAAKKGSMVYFKVGNETRKYKMTSIRNVKPTAVEVLDEQKGKDKQLTLITCDDYNEETGVWETRKIFVATEVKLEHHHHHH", "values": [{"measurement": "increased rates compared to the wild type enzyme", "setting": "[1]; Chen (2011)", "result": "up to 120 ×"}, {"measurement": "Km", "setting": "[1]; Chen (2011), read-out: KM GGG", "result": 4700, "unit": "µM"}, {"measurement": "Km", "setting": "[1]; Chen (2011), read-out: KM LPETG", "result": 170, "unit": "µM"}, {"measurement": "ligase activity at low substrate concentrations", "setting": "[2]", "result": "only spurious ligase activity"}]}, {"molecule": "M. jannaschii Adriase: Methanocaldococcus jannaschii Adriase (MJ_0548) with C-terminal His6-tag (protein, C-terminal His6-tag; M. jannaschii Adriase with C-terminal His-tag) SLIICYYGKNGAVIGGDRRQIFFRGSEENRKILEEKLYSGEIKSEEELYKLAEKLNIKIIIEDDREKVRKISDSVVCGEVRSLGIDAKRRRVYATKGKCAIVDILNDTVTNQTIKEGFGIVVLGNRFLKKKAEEELKRTAKLFPMMPIQQIEDAIKEIFEKLKWHPTVSKEYDIYSVNKYEKNFEEVIKKDIESLFKYREQLRKQLIDFGKVMSIVNKIVKNGEIGVIKDGKLHLYDDYIAIDKIDPNPKVFKVVDVEGNFKDGDIVVIENGDMKIKGTNEKVTTKYIIIHKGSHHHHHH", "values": [{"measurement": "rate of product generation compared to N-terminally modified Adriase", "setting": "[3]", "result": "~ 200 ×"}]}, {"molecule": "M. jannaschii Adriase^S1A (protein, C-terminal His-tag; M. jannaschii Adriase S1A mutant with C-terminal His-tag) ALIICYYGKNGAVIGGDRRQIFFRGSEENRKILEEKLYSGEIKSEEELYKLAEKLNIKIIIEDDREKVRKISDSVVCGEVRSLGIDAKRRRVYATKGKCAIVDILNDTVTNQTIKEGFGIVVLGNRFLKKKAEEELKRTAKLFPMMPIQQIEDAIKEIFEKLKWHPTVSKEYDIYSVNKYEKNFEEVIKKDIESLFKYREQLRKQLIDFGKVMSIVNKIVKNGEIGVIKDGKLHLYDDYIAIDKIDPNPKVFKVVDVEGNFKDGDIVVIENGDMKIKGTNEKVTTKYIIIHKGSHHHHHH", "values": [{"measurement": "complex formation with MtrA", "setting": "[4]", "result": "form a heterodimer"}, {"measurement": "ligase activity (fluorescent ligation product)", "setting": "[5]", "result": "no ligation product is observed"}]}, {"molecule": "M. mazei Adriase: Methanosarcina mazei Adriase (MM_2909), archaeal peptide recombinase, C-terminal His6-tag; Strep-, Myc-, HA-tagged versions used as pulldown bait (protein, C-terminal His6-tag; M. mazei Adriase with C-terminal His-tag, Methanosarcina mazei Adriase (MM_2909), archaeal peptide recombinase, C-terminal His6-tag; Strep-, Myc-, HA-tagged versions used as pulldown bait) TLVIAFIGKNGAVMAGDMREITFEGEKPDREKLEKELYSGSIVTDEEMQKKAEEFGVKITVADCKEKVSERNGVLVGEVSSAEGGVVKKRRLYASAGNFAIAELINTEMTLTSQGKGSNFIAFGNEFTKQVANKCFKDNWTKKSNLQDAVKILILCMETVARKTASVSKQFMIVQTASNADVLKVVEKDRNCGSHHHHHH", "values": [{"measurement": "maximum rate", "setting": "[6]; 0.001 molar equivalents enzyme, pH 7.0, Michaelis-Menten model", "result": "~ 2.25 ligations per enzyme and second"}, {"measurement": "substrate concentration at half maximal reaction speed", "setting": "[6]; each substrate, pH 7.0", "result": "~ 9 μM"}, {"measurement": "ligation of protein pairs", "setting": "[7]", "result": "efficiently ligates all three protein pairs"}, {"measurement": "ligase activity (fluorescent ligation product)", "setting": "[5]", "result": "showed activity"}, {"measurement": "ligation rate coefficient", "setting": "[8]; 25 μM substrate concentration", "result": "0.74 ± 0.05", "unit": "s⁻¹"}, {"measurement": "ligation rate coefficient", "setting": "[8]; 50 μM substrate concentration", "result": "0.88 ± 0.07", "unit": "s⁻¹"}, {"measurement": "ligation rate coefficient", "setting": "[8]; 100 μM substrate concentration", "result": "0.90 ± 0.14", "unit": "s⁻¹"}, {"measurement": "substrate concentration at half-maximum rate", "setting": "[8]; each substrate, equimolar, protein-protein ligation, 50° C., pH 7.0", "result": 2.2, "unit": "µM"}, {"measurement": "maximum rate", "setting": "[8]; protein-protein ligation, 0.0025 molar equivalents enzyme, 50° C., pH 7.0", "result": "0.92 ligations per enzyme and second"}, {"measurement": "product formation", "setting": "[9]; enzyme:substrate 1:1000 (1×), 30 minutes", "result": "~ 50%"}, {"measurement": "amount of ligation product", "setting": "[9]; prolonged incubation (90 min), 1000× increased Adriase concentration", "result": "~ 50%"}, {"measurement": "substrates ligated (on a molar basis)", "setting": "[10]; 3.13 μM each substrate, enzyme:substrate ratio 1:400", "result": "~ 50%"}, {"measurement": "yield compared to Sortase", "setting": "[10]; 100 μM substrates", "result": "~ 1.7 ×"}, {"measurement": "ligase activity / ligation rate compared to SrtA5*", "setting": "[10]; 100 μM substrates, Adriase 0.0025 molar equivalents, 50° C., SrtA5* 37° C.", "result": "~ 40 × and > 40 ×"}, {"measurement": "ligase activity / ligation rate compared to SrtA", "setting": "[10]; 100 μM substrates, Adriase 0.0025 molar equivalents, 50° C., SrtA 37° C.", "result": "~ 4000 × and > 4000 ×"}, {"measurement": "ligation yield", "setting": "[10]; compared to ~30% in the Sortase reactions", "result": "~ 50%"}]}, {"molecule": "SrtA: Staphylococcus aureus Sortase A without N-terminal membrane anchor (residues 1-59), N-terminal His6-tag (protein, listed as Staphylococcus aureus, N-terminal His6-tag; His6-SrtA 1-59, Staphylococcus aureus Sortase A without N-terminal membrane anchor (residues 1-59), N-terminal His6-tag) MRGSHHHHHHGSQAKPQIPKDKSKVAGYIEIPDADIKEPVYPGPATPEQLNRGVSFAEENESLDDQNISIAGHTFIDRPNYQFTNLKAAKKGSMVYFKVGNETRKYKMTSIRDVKPTDVEVLDEQKGKDKQLTLITCDDYNEKTGVWEKRKIFVATEVK", "values": [{"measurement": "Kcat Ligation/Kcat Hydrolysis", "setting": "[11]", "result": "≈ 3.3"}, {"measurement": "Km", "setting": "[1]; primary substrate used in excess, read-out: KM for the secondary substrate", "result": 196, "unit": "µM"}, {"measurement": "Km", "setting": "[1]; secondary substrate used in excess, read-out: KM for the primary substrate", "result": 7330, "unit": "µM"}, {"measurement": "ligase activity at low substrate concentrations", "setting": "[2]", "result": "only spurious ligase activity"}]}, {"molecule": "428-57: M. jannaschii Adriase without the insertion element that distinguishes Adriase from proteasome subunits, C-terminal His6 (protein, C-terminal His6; M. jannaschii Adriase 28-57, C-terminal His6) SLIICYYGKNGAVIGGDRRQIFFRGSGKIIIEDDREKVRKISDSVVCGEVRSLGIDAKRRRVYATKGKCAIVDILNDTVTNQTIKEGFGIVVLGNRFLKKKAEEELKRTAKLFPMMPIQQIEDAIKEIFEKLKWHPTVSKEYDIYSVNKYEKNFEEVIKKDIESLFKYREQLRKQLIDFGKVMSIVNKIVKNGEIGVIKDGKLHLYDDYIAIDKIDPNPKVFKVVDVEGNFKDGDIVVIENGDMKIKGTNEKVTTKYIIIHKGSHHHHHH", "values": [{"measurement": "ligase activity (fluorescent ligation product)", "setting": "[5]", "result": "abolishes ligase activity"}]}, {"molecule": "M. jannaschii Adriase^ΔNTN (protein, listed as Methanosarcina mazei, Methanosarcina mazei Go1; Adriase NTN with C-terminal His-tag) MEQLRKQLIDFGKVMSIVNKIVKNGEIGVIKDGKLHLYDDYIAIDKIDPNPKVFKVVDVEGNFKDGDIVVIENGDMKIKGTNEKVTTKYIIIHKGSHHHHHH", "values": [{"measurement": "complex formation with MtrA", "setting": "[4]", "result": "no complex is formed"}]}, {"molecule": "Adriase^ΔOB S1A (protein) ALIICYYGKNGAVIGGDRRQIFFRGSEENRKILEEKLYSGEIKSEEELYKLAEKLNIKIIIEDDREKVRKISDSVVCGEVRSLGIDAKRRRVYATKGKCAIVDILNDTVTNQTIKEGFGIVVLGNRFLKKKAEEELKRTAKLFPMMPIQQIEDAIKEIFEKLKWHPTVSKEYDIYSVNKYEKNFEEVIKKDIESLFKYREQGSHHHHHH", "values": [{"measurement": "complex formation with MtrA", "setting": "[4]", "result": "decreased affinity"}]}, {"molecule": "Adriase^ΔOB: M. jannaschii Adriase without OB-like domain (Δ203-293), C-terminal His6-tag (protein, C-terminal His6-tag; M. jannaschii Adriase without OB, with C-terminal His-tag) SLIICYYGKNGAVIGGDRRQIFFRGSEENRKILEEKLYSGEIKSEEELYKLAEKLNIKIIIEDDREKVRKISDSVVCGEVRSLGIDAKRRRVYATKGKCAIVDILNDTVTNQTIKEGFGIVVLGNRFLKKKAEEELKRTAKLFPMMPIQQIEDAIKEIFEKLKWHPTVSKEYDIYSVNKYEKNFEEVIKKDIESLFKYREQGSHHHHHH", "values": [{"measurement": "ligase activity (fluorescent ligation product)", "setting": "[5]", "result": "still catalytically active"}]}]}
